In patent US20260216243A1 (TWAIN THERAPEUTICS PTE, published 2026):

Legend:
hIgG1-Fc = molecular target: T1, hIgG1-Fc (human, UniProt P01857-1 99-330 = IgG part, limits assumed); test: ELISA, crude periplasmic extracts on hIgG1-Fc coated wells as reference for Fc specific clones
T1 construct: domain: Fc; also called Sino Biological, Cat. No. 10702-HNAH
Excerpt: (§1) The antigen used for panning and ELISA screening was the same as the one used for immunization (Acro Biosystems, Cat. No. ILR-H5251), using uncoated blocked wells as negative control (blank) and hIgG1-Fc (Sino Biological, Cat. No. 10702-HNAH) coated wells as reference for Fc specific clones. Out of these 570 colonies tested by ELISA, 90 colonies scored positive for hIL9R-Fc only. Based on sequence data of the positive colonies, 29 different Nanobodies were distinguished, belonging to 14 different CDR3 groups (B-cell lineages)

[1] = molecular target: T2, recombinant human interleukin 9 receptor alpha (hIL9R) fused, at the c-terminal, to a human IgG1 Fc (hIL9R-Fc) (human, UniProt Q01113 41-270); test: selected from the clones positive in ELISA of periplasmic extracts on coated hIL9R-Fc
T2 construct: Bought protein; also called Acro Biosystems, Cat. No. ILR-H5251; not shown: human IgG1 Fc fused at the C-terminal
T2 sequence: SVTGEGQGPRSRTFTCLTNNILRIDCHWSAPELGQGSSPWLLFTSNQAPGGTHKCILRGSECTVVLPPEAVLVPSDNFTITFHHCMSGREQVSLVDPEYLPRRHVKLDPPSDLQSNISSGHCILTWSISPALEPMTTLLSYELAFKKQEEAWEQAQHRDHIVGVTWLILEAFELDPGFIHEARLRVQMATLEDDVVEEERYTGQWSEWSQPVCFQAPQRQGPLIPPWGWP
Excerpt: as §1

B1: 2SAT363 (VHH)
VHH: QVQLQESGGGLVQAGGSLRLSCTVSGSFFNINAMGWYRQAPGKQRELVATITAGGSTKYEDTVKGRFTISGDSAKNTVSLQMNSLKPEDTAVYYCAAWGTRIRDDYWGQGTQVTVSS
notes: Screened as soluble Nanobody in crude periplasmic extracts, expressed from pMECS-GG; also called T2; VHH anti-IL-9Rα 2SAT363
binding result (hIgG1-Fc): no binding
binding result [1]: binds

B2: 2SAT57 (VHH)
VHH: QVQLQESGGGLVQAGGSLRLSCAASGSIFSINAMGWFRQAPGKQRELVAVISSGGSTNHADSVKGRFTISRDNAKNTVYLQMNSVKPEDTAVYYCLVATRGGTYEYWGQGTQVTVSS
notes: Screened as soluble Nanobody in crude periplasmic extracts, expressed from pMECS-GG; also called T3; VHH anti-IL-9Rα 2SAT57
binding result (hIgG1-Fc): no binding
binding result [1]: binds
